Measurements as given in article PMC11327152, “Fully-automated production of [^68Ga]Ga-Trivehexin for clinical application and its biodistribution in healthy volunteers” (Frontiers in Oncology, 2024).

How the values were obtained:
[1] = Stability of [^68Ga]Ga-Trivehexin in formulation (PBS), radio-HPLC; type: physicochemical; details: Phosphate Buffer Saline, 2 h co-incubation of final product
Procedure: Radiochemical purity was evaluated by radio-HPLC and radio-TLC. For radio-HPLC, a mobile phase of H2O with 0.1% trifluoroacetic acid (TFA) (v/v, phase A) and acetonitrile with 0.1% TFA (v/v, phase B) was used with a flow rate of 1.0 mL/min and a linear elution gradient as follows: 0-5 min (0-95% A); 5-10 min (95-30% A);10-20 min (30-0% A). For radio-TLC, 0.4 M ammonium acetate solution/methanol (v/v, 1/1) (A) and 0.1 M citrate buffer (B) were used as mobile phases, respectively.
The stability of [^68Ga]Ga-Trivehexin in formulation and serum was further evaluated in Phosphate Buffer Saline (PBS) and Fetal Bovine Serum (FBS). After co-incubation of the final product with PBS or FBS for 60 or 120 min, radio-HPLC was used for the analysis.

healthy volunteers [2] = tested on: healthy volunteers; parameters: species or system human; details: in vivo
Procedure: (§1) Applications of [^68Ga]Ga-Trivehexin in 3 healthy volunteers were done with written informed consent, and details of the volunteers were shown in Supplementary Table S2 . […] The PET scan was performed at 10 min, 35 min, and 60 min after intravenous injection, without repeated CT scans. Another PET/CT imaging sequence was obtained at 150 min post-injection, as the subject had to leave the scanner for voiding. Based on human PET data, the dosimetry values were calculated using OLINDA V2.2 to calculate organ doses and effective dose (as defined by International Commission on Radiological Protection publication 103) ([14]) using the International Commission on Radiological Protection publication 89 ([15]) adult human male and female models.

clinical [3] = details: human, in vivo, iv, total radioactivity
Procedure: (§2) The clinical study was approved by Medical Ethics Committee, Zhongnan Hospital of Wuhan University and registered at ClinicalTrials.gov (NCT05835570). PET/CT imaging was performed using a Siemens-Biograph mCT PET/CT scanner (Siemens Healthineers, Erlangen, Germany). No special preparation was needed for [^68Ga]Ga-Trivehexin PET/CT. The injection dose was 87-122 MBq (70.7 MBq/mL, 90.9 MBq/nmol) and was determined on the basis of the patient’s weight (1.85 MBq/kg). PET/CT images were scanned from the top of the head to the upper thigh. PET data were obtained in a three-dimensional mode (matrix 200 × 200) of 6-8 bed positions (3 min/bed). Attenuation correction of PET images was performed using low-dose CT data. Image reconstruction was performed using the TrueX and time-of-flight (ultrahigh-definition PET) algorithms.
as §1

healthy volunteers [4] = test: clinical; details: human, in vivo, iv
Procedure: as §2, §1

clinical [5] = details: human, in vivo, iv, total radioactivity; remark: listed apart in the source

With CC(C)C[C@@H]1NC(=O)[C@H](CC(=O)O)NC(=O)CNC(=O)[C@H](CCCNC(=N)N)NC(=O)[C@H](Cc2ccc(O)cc2)NC(=O)[C@H](CCCCNC(=O)CCc2cn(CCCNC(=O)CCP(=O)(O)CN3CCN(CP(=O)(O)CCC(=O)NCCCn4cc(CCC(=O)NCCCC[C@H]5C(=O)N[C@@H](Cc6ccc(O)cc6)C(=O)N[C@@H](CCCNC(=N)N)C(=O)NCC(=O)N[C@@H](CC(=O)O)C(=O)N[C@@H](CC(C)C)C(=O)N[C@@H](C)C(=O)N[C@@H](Cc6ccc(O)cc6)C(=O)N6CCC[C@@H]6C(=O)N5C)nn4)CCN(CP(=O)(O)CCC(=O)NCCCn4cc(CCC(=O)NCCCC[C@H]5C(=O)N[C@@H](Cc6ccc(O)cc6)C(=O)N[C@@H](CCCNC(=N)N)C(=O)NCC(=O)N[C@@H](CC(=O)O)C(=O)N[C@@H](CC(C)C)C(=O)N[C@@H](C)C(=O)N[C@@H](Cc6ccc(O)cc6)C(=O)N6CCC[C@@H]6C(=O)N5C)nn4)CC3)nn2)N(C)C(=O)[C@H]2CCCN2C(=O)[C@H](Cc2ccc(O)cc2)NC(=O)[C@H](C)NC1=O [[^68Ga]Ga-Trivehexin, metal not drawn] the “intact tracer remained in PBS” value [1] was “up to 98.9%”, the “Dose Adrenals” value (healthy volunteers [2]) was 3.22E-02 mGy/MBq and the “Dose Brain” value (healthy volunteers [2]) was 1.40E-03 mGy/MBq. The “Dose Esophagus” value (healthy volunteers [2]) was 1.98E-02 mGy/MBq, the “Dose Eyes” value (healthy volunteers [2]) was 4.25E-03 mGy/MBq and the “Dose Gallbladder Wall” value (healthy volunteers [2]) was 2.09E-02 mGy/MBq. For the same compound, the “Dose Heart Wall” value (healthy volunteers [2]) was 1.73E-02 mGy/MBq, the “Dose Kidneys” value (healthy volunteers [2]) was 2.26E-01 mGy/MBq and the “Dose Left colon” value (healthy volunteers [2]) was 1.88E-02 mGy/MBq. For the same compound, the “Dose Liver” value (healthy volunteers [2]) was 1.58E-02 mGy/MBq, the “Dose Lungs” value (healthy volunteers [2]) was 8.72E-03 mGy/MBq and the “Dose Osteogenic Cells” value (healthy volunteers [2]) was 1.86E-02 mGy/MBq. The “Dose Pancreas” value (healthy volunteers [2]) was 1.96E-02 mGy/MBq, the “Dose Prostate” value (healthy volunteers [2]) was 1.77E-02 mGy/MBq and the “Dose Rectum” value (healthy volunteers [2]) was 1.96E-02 mGy/MBq. For the same compound, the “Dose Red Marrow” value (healthy volunteers [2]) was 1.16E-02 mGy/MBq, the “Dose Right colon” value (healthy volunteers [2]) was 1.86E-02 mGy/MBq and the “Dose Salivary Glands” value (healthy volunteers [2]) was 1.53E-02 mGy/MBq. The “Dose Small Intestine” value (healthy volunteers [2]) was 1.78E-02 mGy/MBq, the “Dose Spleen” value (healthy volunteers [2]) was 1.68E-02 mGy/MBq and the “Dose Stomach Wall” value (healthy volunteers [2]) was 1.77E-02 mGy/MBq. The “Dose Testes” value (healthy volunteers [2]) was 1.41E-02 mGy/MBq, the “Dose Thymus” value (healthy volunteers [2]) was 1.31E-02 mGy/MBq and the “Dose Thyroid” value (healthy volunteers [2]) was 1.96E-02 mGy/MBq. The “Dose Total Body” value (healthy volunteers [2]) was 1.26E-02 mGy/MBq, the “Dose Urinary Bladder Wall” value (healthy volunteers [2]) was 8.24E-02 mGy/MBq and the “Effective Dose” value (healthy volunteers [2]) was 1.67E-02 mGy/MBq. The “effective dose in adrenals” value (healthy volunteers [2]) was 3.22E-02 mSv/MBq, the “effective dose in kidneys” value (healthy volunteers [2]) was 2.26E-01 mSv/MBq and the “effective dose in urinary bladder wall” value (healthy volunteers [2]) was 8.24E-02 mSv/MBq. For the same compound, the “total body effective dose” value (healthy volunteers [2]) was 1.67E-02 mSv/MBq, the SUV at 1 h (clinical [3]; SUVmean ± SD Colon) was 1.07 ± 0.21 SUV and the SUV at 2.5 h (clinical [3]; SUVmean ± SD Fat tissue) was 0.22 ± 0.1 SUV. It also gave an SUV at 2.5 h (clinical [3]; SUVmean ± SD Kidney) of 21.3 ± 2 SUV, an SUV at 1 h (clinical [3]; SUVmean ± SD Liver) of 0.82 ± 0.07 SUV and an SUV at 2.5 h (clinical [3]; SUVmean ± SD Lung) of 0.45 ± 0.13 SUV. It also gave an SUV at 1 h (clinical [3]; SUVmean ± SD Muscle) of 0.97 ± 0.1 SUV, an SUV at 2.5 h (clinical [3]; SUVmean ± SD Myocardium) of 0.5 ± 0.09 SUV and an SUV at 2.5 h (clinical [3]; SUVmean ± SD Parotid gland) of 0.97 ± 0.07 SUV. For the same compound, the SUV at 1 h (clinical [3]; SUVmean ± SD Spinal Canal(C5)) was 0.85 ± 0.13 SUV, the SUV at 2.5 h (clinical [3]; SUVmean ± SD Spleen) was 0.55 ± 0.07 SUV and the “SUVmean ± SD Brain” value (healthy volunteers [4]) was 0.01 ± 0.00. The SUV at 0.25 h (clinical [5]; SUVmean ± SD Brain) was 0.04 ± 0.01 SUV, the SUV at 0.5 h (clinical [5]; SUVmean ± SD Brain) was 0.03 ± 0.01 SUV and the SUV at 0.25 h (clinical [5]; SUVmean ± SD Colon) was 1.86 ± 0.31 SUV. For the same compound, the SUV at 0.5 h (clinical [5]; SUVmean ± SD Colon) was 1.52 ± 0.36 SUV, the SUV at 2.5 h (clinical [5]; SUVmean ± SD Colon) was 0.78 ± 0.16 SUV and the SUV at 0.25 h (clinical [5]; SUVmean ± SD Eyes) was 0.36 ± 0.04 SUV. The SUV at 0.5 h (clinical [5]; SUVmean ± SD Eyes) was 0.28 ± 0.14 SUV, the SUV at 1 h (clinical [5]; SUVmean ± SD Eyes) was 0.71 ± 0.28 SUV and the SUV at 2.5 h (clinical [5]; SUVmean ± SD Eyes) was 0.12 ± 0.03 SUV. For the same compound, the SUV at 0.25 h (clinical [5]; SUVmean ± SD Fat tissue) was 0.26 ± 0.03 SUV, the SUV at 0.5 h (clinical [5]; SUVmean ± SD Fat tissue) was 0.22 ± 0.03 SUV and the SUV at 1 h (clinical [5]; SUVmean ± SD Fat tissue) was 0.26 ± 0.02 SUV. For the same compound, the SUV at 0.25 h (clinical [5]; SUVmean ± SD Kidney) was 19.3 ± 1.13 SUV, the SUV at 0.5 h (clinical [5]; SUVmean ± SD Kidney) was 21.5 ± 1.28 SUV and the SUV at 1 h (clinical [5]; SUVmean ± SD Kidney) was 23.4 ± 2.38 SUV. It also gave an SUV at 0.25 h (clinical [5]; SUVmean ± SD Liver) of 1.68 ± 0.26 SUV, an SUV at 0.5 h (clinical [5]; SUVmean ± SD Liver) of 1.11 ± 0.23 SUV and an SUV at 2.5 h (clinical [5]; SUVmean ± SD Liver) of 0.65 ± 0.1 SUV. The SUV at 0.25 h (clinical [5]; SUVmean ± SD Lung) was 0.65 ± 0.03 SUV, the SUV at 0.5 h (clinical [5]; SUVmean ± SD Lung) was 0.58 ± 0.14 SUV and the SUV at 1 h (clinical [5]; SUVmean ± SD Lung) was 0.53 ± 0.05 SUV. For the same compound, the SUV at 0.25 h (clinical [5]; SUVmean ± SD Muscle) was 1.04 ± 0.1 SUV, the SUV at 0.5 h (clinical [5]; SUVmean ± SD Muscle) was 1.04 ± 0.01 SUV and the SUV at 2.5 h (clinical [5]; SUVmean ± SD Muscle) was 0.68 ± 0.1 SUV. For the same compound, the SUV at 0.25 h (clinical [5]; SUVmean ± SD Myocardium) was 1.69 ± 0.35 SUV, the SUV at 0.5 h (clinical [5]; SUVmean ± SD Myocardium) was 0.83 ± 0.13 SUV and the SUV at 1 h (clinical [5]; SUVmean ± SD Myocardium) was 0.52 ± 0.01 SUV. The SUV at 0.25 h (clinical [5]; SUVmean ± SD Oral mucosa) was 2.6 ± 0.38 SUV, the SUV at 0.5 h (clinical [5]; SUVmean ± SD Oral mucosa) was 2.28 ± 0.13 SUV and the SUV at 1 h (clinical [5]; SUVmean ± SD Oral mucosa) was 2.12 ± 0.43 SUV. For the same compound, the SUV at 2.5 h (clinical [5]; SUVmean ± SD Oral mucosa) was 1.59 ± 0.42 SUV, the SUV at 0.25 h (clinical [5]; SUVmean ± SD Pancreas) was 2.46 ± 0.12 SUV and the SUV at 0.5 h (clinical [5]; SUVmean ± SD Pancreas) was 1.47 ± 0.24 SUV. For the same compound, the SUV at 1 h (clinical [5]; SUVmean ± SD Pancreas) was 1.01 ± 0.11 SUV, the SUV at 2.5 h (clinical [5]; SUVmean ± SD Pancreas) was 1.13 ± 0.28 SUV and the SUV at 0.25 h (clinical [5]; SUVmean ± SD Parotid gland) was 2.31 ± 0.09 SUV. For the same compound, the SUV at 0.5 h (clinical [5]; SUVmean ± SD Parotid gland) was 1.19 ± 0.06 SUV, the SUV at 1 h (clinical [5]; SUVmean ± SD Parotid gland) was 1.01 ± 0.1 SUV and the SUV at 0.25 h (clinical [5]; SUVmean ± SD Spinal Canal(C5)) was 1.17 ± 0.15 SUV. It also gave an SUV at 0.5 h (clinical [5]; SUVmean ± SD Spinal Canal(C5)) of 0.62 ± 0.12 SUV, an SUV at 2.5 h (clinical [5]; SUVmean ± SD Spinal Canal(C5)) of 0.54 ± 0.15 SUV and an SUV at 0.25 h (clinical [5]; SUVmean ± SD Spleen) of 1.95 ± 0.12 SUV. For the same compound, the SUV at 0.5 h (clinical [5]; SUVmean ± SD Spleen) was 1.01 ± 0.06 SUV, the SUV at 1 h (clinical [5]; SUVmean ± SD Spleen) was 0.76 ± 0.01 SUV and the SUV at 0.25 h (clinical [5]; SUVmean ± SD Thyroid gland) was 3.41 ± 0.22 SUV. It also gave an SUV at 0.5 h (clinical [5]; SUVmean ± SD Thyroid gland) of 1.54 ± 0.29 SUV, an SUV at 1 h (clinical [5]; SUVmean ± SD Thyroid gland) of 1.37 ± 0.04 SUV and an SUV at 2.5 h (clinical [5]; SUVmean ± SD Thyroid gland) of 1.01 ± 0.37 SUV.
